Results published in the supplement of paper PMC11316812.
± gives the standard deviation of the averaged measurements.

Tests used:
MCF7 = test: percentage of EdU-negative (G0-arrested) nuclei per well, 72 h; higher = more G0 arrest; conditions: reference: sequence is the full UniProt precursor, the tested protein was the secreted form or ectodomain
hTERT-HMEC = test: as above; conditions: reference: sequence is the full UniProt precursor, the tested protein was the secreted form or ectodomain
[1] = protein concentration 0.01655 µM
[2] = protein concentration 0.1655 µM
[3] = protein concentration 0.0225 µM
[4] = protein concentration 0.03125 µM
[5] = protein concentration 0.3125 µM
[6] = protein concentration 0.025165 µM
[7] = protein concentration 0.25165 µM
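Note: secreted proteins added to cultured cells, EdU pulse at the end, nuclei found by Hoechst imaging, EdU status from nuclear versus surrounding ring intensity ratio, PBS as neutral control.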

MPGSPRPAPSWVLLLRLLALLRPPGLGEACSCAPAHPQQHICHSALVIRAKISSEKVVPASADPADTEKMLRYEIKQIKMFKGFEKVKDVQYIYTPFDSSLCGVKLEANSQKQYLLTGQVLSDGKVFIHLCNYIEPWEDLSLVQRESLNHHYHLNCGCQITTCYTVPCTISAPNECLWTDWLLERKLYGYQAQHYVCMKHVDGTCSWYRGHLPLRKEFVDIVQP
percentage of EdU-negative (MCF7; [1]): 26.2 ± 1.7% | percentage of EdU-negative (MCF7; [2]): 27.1 ± 0.65% | percentage of EdU-negative (hTERT-HMEC; [1]): 5.41 ± 0.19% | percentage of EdU-negative (hTERT-HMEC; [2]): 6.76 ± 0.1%

MARGSAVAWAALGPLLWGCALGLQGGMLYPQESPSRECKELDGLWSFRADFSDNRRRGFEEQWYRRPLWESGPTVDMPVPSSFNDISQDWRLRHFVGWVWYEREVILPERWTQDLRTRVVLRIGSAHSYAIVWVNGVDTLEHEGGYLPFEADISNLVQVGPLPSRLRITIAINNTLTPTTLPPGTIQYLTDTSKYPKGYFVQNTYFDFFNYAGLQRSVLLYTTPTTYIDDITVTTSVEQDSGLVNYQISVKGSNLFKLEVRLLDAENKVVANGTGTQGQLKVPGVSLWWPYLMHERPAYLYSLEVQLTAQTSLGPVSDFYTLPVGIRTVAVTKSQFLINGKPFYFHGVNKHEDADIRGKGFDWPLLVKDFNLLRWLGANAFRTSHYPYAEEVMQMCDRYGIVVIDECPGVGLALPQFFNNVSLHHHMQVMEEVVRRDKNHPAVVMWSVANEPASHLESAGYYLKMVIAHTKSLDPSRPVTFVSNSNYAADKGAPYVDVICLNSYYSWYHDYGHLELIQLQLATQFENWYKKYQKPIIQSEYGAETIAGFHQDPPLMFTEEYQKSLLEQYHLGLDQKRRKYVVGELIWNFADFMTEQSPTRVLGNKKGIFTRQRQPKSAAFLLRERYWKIANETRYPHSVAKSQCLENSLFT
percentage of EdU-negative (MCF7; [3]): 24.2 ± 0.95% | percentage of EdU-negative (MCF7; protein concentration 0.225 µM): 23.4 ± 1.8% | percentage of EdU-negative (hTERT-HMEC; [3]): 5.26 ± 0.26% | percentage of EdU-negative (hTERT-HMEC; protein concentration 0.225 µM): 5.74 ± 0.95%

MNVLLGSVVIFATFVTLCNASCYFIPNEGVPGDSTRKCMDLKGNKHPINSEWQTDNCETCTCYETEISCCTLVSTPVGYDKDNCQRIFKKEDCKYIVVEKKDPKKTCSVSEWII
percentage of EdU-negative (MCF7; [3]): 25.8 ± 1.8% | percentage of EdU-negative (MCF7; protein concentration 0.225 µM): 24.5 ± 0.81% | percentage of EdU-negative (hTERT-HMEC; [3]): 5.28 ± 0.77% | percentage of EdU-negative (hTERT-HMEC; protein concentration 0.225 µM): 5.95 ± 1.1%

MSLRLDTTPSCNSARPLHALQVLLLLSLLLTALASSTKGQTKRNLAKGKEESLDSDLYAELRCMCIKTTSGIHPKNIQSLEVIGKGTHCNQVEVIATLKDGRKICLDPDAPRIKKIVQKKLAGDESAD
percentage of EdU-negative (MCF7; [4]): 26.14 ± 0.19% | percentage of EdU-negative (MCF7; [5]): 26.53 ± 0.004% | percentage of EdU-negative (hTERT-HMEC; [4]): 5.49 ± 1.9% | percentage of EdU-negative (hTERT-HMEC; [5]): 4.65 ± 0.1%

MAPGSRTSLLLAFALLCLPWLQEAGAVQTVPLSRLFDHAMLQAHRAHQLAIDTYQEFEETYIPKDQKYSFLHDSQTSFCFSDSIPTPSNMEETQQKSNLELLRISLLLIESWLEPVRFLRSMFANNLVYDTSDSDDYHLLKDLEEGIQTLMGRLEDGSRRTGQILKQTYSKFDTNSHNHDALLKNYGLLYCFRKDMDKVETFLRMVQCRSVEGSCGF [P0DML2]
percentage of EdU-negative (MCF7; [4]): 28.31 ± 0.052% | percentage of EdU-negative (MCF7; [5]): 25.8 ± 0.31% | percentage of EdU-negative (hTERT-HMEC; [4]): 5.53 ± 0.26% | percentage of EdU-negative (hTERT-HMEC; [5]): 6.34 ± 1.3%

MPGGPGVLQALPATIFLLFLLSAVYLGPGCQALWMHKVPASLMVSLGEDAHFQCPHNSSNNANVTWWRVLHGNYTWPPEFLGPGEDPNGTLIIQNVNKSHGGIYVCRVQEGNESYQQSCGTYLRVRQPPPRPFLDMGEGTKNRIITAEGIILLFCAVVPGTLLLFRKRWQNEKLGLDAGDEYEDENLYEGLNLDDCSMYEDISRGLQGTYQDVGSLNIGDVQLEKP
percentage of EdU-negative (MCF7; [3]): 25.3 ± 0.85% | percentage of EdU-negative (MCF7; protein concentration 0.225 µM): 27 ± 1.2% | percentage of EdU-negative (hTERT-HMEC; [3]): 5.39 ± 0.06% | percentage of EdU-negative (hTERT-HMEC; protein concentration 0.225 µM): 5.986 ± 0.025%

MRKFAYCKVVLATSLIWVLLDMFLLLYFSECNKCDEKKERGLPAGDVLEPVQKPHEGPGEMGKPVVIPKEDQEKMKEMFKINQFNLMASEMIALNRSLPDVRLEGCKTKVYPDNLPTTSVVIVFHNEAWSTLLRTVHSVINRSPRHMIEEIVLVDDASERDFLKRPLESYVKKLKVPVHVIRMEQRSGLIRARLKGAAVSKGQVITFLDAHCECTVGWLEPLLARIKHDRRTVVCPIIDVISDDTFEYMAGSDMTYGGFNWKLNFRWYPVPQREMDRRKGDRTLPVRTPTMAGGLFSIDRDYFQEIGTYDAGMDIWGGENLEISFRIWQCGGTLEIVTCSHVGHVFRKATPYTFPGGTGQIINKNNRRLAEVWMDEFKNFFYIISPGVTKVDYGDISSRVGLRHKLQCKPFSWYLENIYPDSQIPRHYFSLGEIRNVETNQCLDNMARKENEKVGIFNCHGMGGNQVFSYTANKEIRTDDLCLDVSKLNGPVTMLKCHHLKGNQLWEYDPVKLTLQHVNSNQCLDKATEEDSQVPSIRDCNGSRSQQWLLRNVTLPEIF
percentage of EdU-negative (MCF7; [3]): 25.1 ± 1% | percentage of EdU-negative (MCF7; protein concentration 0.225 µM): 23.6 ± 2.5% | percentage of EdU-negative (hTERT-HMEC; [3]): 4.8 ± 0.5% | percentage of EdU-negative (hTERT-HMEC; protein concentration 0.225 µM): 5.577 ± 0.015%

MPRYGASLRQSCPRSGREQGQDGTAGAPGLLWMGLVLALALALALALALSDSRVLWAPAEAHPLSPQGHPARLHRIVPRLRDVFGWGNLTCPICKGLFTAINLGLKKEPNVARVGSVAIKLCNLLKIAPPAVCQSIVHLFEDDMVEVWRRSVLSPSEACGLLLGSTCGHWDIFSSWNISLPTVPKPPPKPPSPPAPGAPVSRILFLTDLHWDHDYLEGTDPDCADPLCCRRGSGLPPASRPGAGYWGEYSKCDLPLRTLESLLSGLGPAGPFDMVYWTGDIPAHDVWHQTRQDQLRALTTVTALVRKFLGPVPVYPAVGNHESTPVNSFPPPFIEGNHSSRWLYEAMAKAWEPWLPAEALRTLRIGGFYALSPYPGLRLISLNMNFCSRENFWLLINSTDPAGQLQWLVGELQAAEDRGDKVHIIGHIPPGHCLKSWSWNYYRIVARYENTLAAQFFGHTHVDEFEVFYDEETLSRPLAVAFLAPSATTYIGLNPGYRVYQIDGNYSGSSHVVLDHETYILNLTQANIPGAIPHWQLLYRARETYGLPNTLPTAWHNLVYRMRGDMQLFQTFWFLYHKGHPPSEPCGTPCRLATLCAQLSARADSPALCRHLMPDGSLPEAQSLWPRPLFC
percentage of EdU-negative (MCF7; [3]): 24.3 ± 1.8% | percentage of EdU-negative (MCF7; protein concentration 0.225 µM): 24.4 ± 1.7% | percentage of EdU-negative (hTERT-HMEC; [3]): 4.79 ± 0.51% | percentage of EdU-negative (hTERT-HMEC; protein concentration 0.225 µM): 5.82 ± 1.2%

MPACRLGPLAAALLLSLLLFGFTLVSGTGAEKTGVCPELQADQNCTQECVSDSECADNLKCCSAGCATFCSLPNDKEGSCPQVNINFPQLGLCRDQCQVDSQCPGQMKCCRNGCGKVSCVTPNF
percentage of EdU-negative (MCF7; [6]): 25.2 ± 0.76% | percentage of EdU-negative (MCF7; [7]): 25.3 ± 0.99% | percentage of EdU-negative (hTERT-HMEC; [6]): 4.52 ± 0.38% | percentage of EdU-negative (hTERT-HMEC; [7]): 4.9 ± 0.49%

MDLRDFYLLAALIACLRLDSAIAQELIYTIREELPENVPIGNIPKDLNISHINAATGTSASLVYRLVSKAGDAPLVKVSSSTGEIFTTSNRIDREKLCAGASYAEENECFFELEVVILPNDFFRLIKIKIIVKDTNDNAPMFPSPVINISIPENTLINSRFPIPSATDPDTGFNGVQHYELLNGQSVFGLDIVETPEGEKWPQLIVQQNLDREQKDTYVMKIKVEDGGTPQKSSTAILQVTVSDVNDNRPVFKEGQVEVHIPENAPVGTSVIQLHATDADIGSNAEIRYIFGAQVAPATKRLFALNNTTGLITVQRSLDREETAIHKVTVLASDGSSTPARATVTINVTDVNDNPPNIDLRYIISPINGTVYLSEKDPVNTKIALITVSDKDTDVNGKVICFIEREVPFHLKAVYDNQYLLETSSLLDYEGTKEFSFKIVASDSGKPSLNQTALVRVKLEDENDNPPIFNQPVIELSVSENNRRGLYLTTISATDEDSGKNADIVYQLGPNASFFDLDRKTGVLTASRVFDREEQERFIFTVTARDNGTPPLQSQAAVIVTVLDENDNSPKFTHNHFQFFVSENLPKYSTVGVITVTDADAGENKAVTLSILNDNDNFVLDPYSGVIKSNVSFDREQQSSYTFDVKATDGGQPPRSSTAKVTINVMDVNDNSPVVISPPSNTSFKLVPLSAIPGSVVAEVFAVDVDTGMNAELKYTIVSGNNKGLFRIDPVTGNITLEEKPAPTDVGLHRLVVNISDLGYPKSLHTLVLVFLYVNDTAGNASYIYDLIRRTMETPLDRNIGDSSQPYQNEDYLTIMIAIIAGAMVVIVVIFVTVLVRCRHASRFKAAQRSKQGAEWMSPNQENKQNKKKKRKKRKSPKSSLLNFVTIEESKPDDAVHEPINGTISLPAELEEQSIGRFDWGPAPPTTFKPNSPDLAKHYKSASPQPAFHLKPDTPVSVKKHHVIQELPLDNTFVGGCDTLSKRSSTSSDHFSASECSSQGGFKTKGPLHTRQCNSHSKSDNIPVTPQKCPSSTGFHIQENEESHYESQRRVTFHLPDGSQESCSDSGLGDHEPVGSGTLISHPLPLVQPQDEFYDQASPDKRTEADGNSDPNSDGPLGPRGLAEATEMCTQECLVLGHSDNCWMPPGLGPYQHPKSPLSTFAPQKEWVKKDKLVNGHTLTRAWKEDSNRNQFNDRKQYGSNEGHFNNGSHMTDIPLANLKSYKQAGGATESPKEHQL [Q9HC56]
percentage of EdU-negative (MCF7; [3]): 25.9 ± 2.1% | percentage of EdU-negative (MCF7; protein concentration 0.225 µM): 32.9 ± 2.9% | percentage of EdU-negative (hTERT-HMEC; [3]): 4.64 ± 0.43% | percentage of EdU-negative (hTERT-HMEC; protein concentration 0.225 µM): 13.4 ± 3.9%
